Measured values from patent CN107286237A.

Experiments:
Experiment in all cases: SPR, BiaCore X-100, TRN1007 captured by goat anti-human IgG on CM5 chip, E2-core as analyte
[1] = target: HCV包膜糖蛋白 HCV-E2-core 基因型4a (Hepatitis C virus genotype 4a)
[2] = target: HCV包膜糖蛋白 HCV-E2-core 基因型7a (Hepatitis C virus genotype 7a)
[3] = target: HCV包膜糖蛋白 HCV-E2-core 基因型6a (Hepatitis C virus genotype 6a)
[4] = target: HCV包膜糖蛋白 HCV-E2-core 基因型2a (Hepatitis C virus genotype 2a)

B1: 全人源抗HCV单克隆中和抗体TRN1007 (antibody, V domains shown)
VH: EVQLVQSGAEVKKPGSSVKVSCKASGGSFRSYGFSWVRQAPGQGLEWMGRIIPAANFADYAPKFQDRVTISADKSTSTAYMELKSLRSDDTAVYYCARDQDLSGELTALYYYHGLDVWGQGTTVTVSS
VL: EIVLTQSPGTLSLSPGQRVTLSCRASQSVSNNYIAWYQQKPGQAPRLLISGASSRATGIPDRFSGTGSGTDFTLAISRLEPEDFAVYYCQQYGDSFWTFGQGTKVEIK
Kd [1]: 1.59 pM
koff [1]: 7.17e-08 s⁻¹
kon [1]: 45100 M⁻¹ s⁻¹
Kd [2]: 17.8 pM
koff [2]: 1.68e-06 s⁻¹
kon [2]: 94400 M⁻¹ s⁻¹
Kd [3]: 179 pM
koff [3]: 5.36e-07 s⁻¹
kon [3]: 2990 M⁻¹ s⁻¹
Kd [4]: 1.07 pM
koff [4]: 8.63e-08 s⁻¹
kon [4]: 80500 M⁻¹ s⁻¹
